According to PMC3505834 (Nature immunology, 2012):

Target: T1, recombinant soluble CD46 (CCP1-4) (human, UniProt P15529 35-285)
T1 sequence (looked up): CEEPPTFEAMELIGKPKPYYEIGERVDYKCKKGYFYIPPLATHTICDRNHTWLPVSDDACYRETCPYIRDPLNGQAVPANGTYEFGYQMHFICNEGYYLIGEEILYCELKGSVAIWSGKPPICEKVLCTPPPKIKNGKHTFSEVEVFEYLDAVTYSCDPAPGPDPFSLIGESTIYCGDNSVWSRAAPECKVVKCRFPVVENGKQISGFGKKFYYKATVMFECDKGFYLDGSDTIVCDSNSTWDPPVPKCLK
Assay: SPR

Kd: ~8 µM
B1: J-1_(DSL-EGF3), recombinant Jagged1 construct of the DSL and first three EGF-like domains (domain or fragment)
chain: not shown
modifications: c-terminally biotinylated
